Source: patent US20180273587A1 (AILERON THERAPEUTICS, published 2018)
Positions of bridges follow the written chain, without caps; N, C: chain ends. Non-standard residues stand in square brackets, D forms with d. 2Nal = N[C@@H](Cc1ccc2ccccc2c1)C(=O)O; hPhe = N[C@@H](CCc1ccccc1)C(=O)O; R8 = C=CCCCCCC[C@@](C)(N)C(=O)O; S5 = C=CCCC[C@](C)(N)C(=O)O

Key:
Experiment in all cases: Ki; method not stated; unit not printed (nM per Table 6)
MCL-1 = target: T1, MCL-1 (UniProt Q07820 172-327, limits assumed)
T1 construct: Target of the Ki columns; also called Myeloid cell leukemia 1
T1 sequence (Q07820 172-327 limits assumed): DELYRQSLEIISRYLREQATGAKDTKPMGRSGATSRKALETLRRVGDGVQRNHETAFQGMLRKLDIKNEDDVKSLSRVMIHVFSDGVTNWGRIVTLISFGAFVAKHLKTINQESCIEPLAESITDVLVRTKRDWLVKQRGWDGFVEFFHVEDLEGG

BCL-2 = target: T2, BCL-2 (UniProt P10415 1-217, limits assumed)
T2 construct: Target of the Ki columns
T2 sequence (P10415 1-217 limits assumed): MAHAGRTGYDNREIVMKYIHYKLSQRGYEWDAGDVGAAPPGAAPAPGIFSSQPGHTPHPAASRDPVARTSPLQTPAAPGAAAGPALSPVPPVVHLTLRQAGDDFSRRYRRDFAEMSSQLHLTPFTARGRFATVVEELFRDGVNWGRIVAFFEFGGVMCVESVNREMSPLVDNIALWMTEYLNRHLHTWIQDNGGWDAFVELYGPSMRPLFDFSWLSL

BCL-XL = target: T3, BCL-XL (UniProt Q07817 1-209)
T3 construct: Target of the Ki columns
T3 sequence (Q07817 1-209): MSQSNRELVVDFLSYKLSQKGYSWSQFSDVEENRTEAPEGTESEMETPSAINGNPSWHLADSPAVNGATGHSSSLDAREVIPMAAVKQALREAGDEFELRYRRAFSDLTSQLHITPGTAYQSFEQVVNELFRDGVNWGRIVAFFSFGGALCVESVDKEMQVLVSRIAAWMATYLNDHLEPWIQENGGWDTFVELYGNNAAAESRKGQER

Binder	Ki (MCL-1) [nM]	Ki (BCL-2) [nM]	Ki (BCL-XL) [nM]
Ac-IHIAAALR[R8]IGDAFN[S5]YYA-NH2 (staple 9-16; SMILES CC[C@H](C)[C@H](NC(C)=O)C(=O)N[C@@H](Cc1c[nH]cn1)C(=O)N[C@H](C(=O)N[C@@H](C)C(=O)N[C@@H](C)C(=O)N[C@@H](C)C(=O)N[C@@H](CC(C)C)C(=O)N[C@@H](CCCNC(=N)N)C(=O)N[C@]1(C)CCCCCCC=CCCC[C@@](C)(C(=O)N[C@@H](Cc2ccc(O)cc2)C(=O)N[C@@H](Cc2ccc(O)cc2)C(=O)N[C@@H](C)C(N)=O)NC(=O)[C@H](CC(N)=O)NC(=O)[C@H](Cc2ccccc2)NC(=O)[C@H](C)NC(=O)[C@H](CC(=O)O)NC(=O)CNC(=O)[C@H]([C@@H](C)CC)NC1=O)[C@@H](C)CC) [SEQ ID NO: 1727]	6.6	43	19.5
Ac-ISIAAALR[R8]IGDAFN[S5]YYA-NH2 (staple 9-16; SMILES CC[C@H](C)[C@H](NC(C)=O)C(=O)N[C@@H](CO)C(=O)N[C@H](C(=O)N[C@@H](C)C(=O)N[C@@H](C)C(=O)N[C@@H](C)C(=O)N[C@@H](CC(C)C)C(=O)N[C@@H](CCCNC(=N)N)C(=O)N[C@]1(C)CCCCCCC=CCCC[C@@](C)(C(=O)N[C@@H](Cc2ccc(O)cc2)C(=O)N[C@@H](Cc2ccc(O)cc2)C(=O)N[C@@H](C)C(N)=O)NC(=O)[C@H](CC(N)=O)NC(=O)[C@H](Cc2ccccc2)NC(=O)[C@H](C)NC(=O)[C@H](CC(=O)O)NC(=O)CNC(=O)[C@H]([C@@H](C)CC)NC1=O)[C@@H](C)CC) [SEQ ID NO: 1728]	15.3	89.5	56.2
Ac-INIAAALR[R8]IGDAFN[S5]YYA-NH2 (staple 9-16; SMILES CC[C@H](C)[C@H](NC(C)=O)C(=O)N[C@@H](CC(N)=O)C(=O)N[C@H](C(=O)N[C@@H](C)C(=O)N[C@@H](C)C(=O)N[C@@H](C)C(=O)N[C@@H](CC(C)C)C(=O)N[C@@H](CCCNC(=N)N)C(=O)N[C@]1(C)CCCCCCC=CCCC[C@@](C)(C(=O)N[C@@H](Cc2ccc(O)cc2)C(=O)N[C@@H](Cc2ccc(O)cc2)C(=O)N[C@@H](C)C(N)=O)NC(=O)[C@H](CC(N)=O)NC(=O)[C@H](Cc2ccccc2)NC(=O)[C@H](C)NC(=O)[C@H](CC(=O)O)NC(=O)CNC(=O)[C@H]([C@@H](C)CC)NC1=O)[C@@H](C)CC) [SEQ ID NO: 1729]	11.2	62.5	37.3
Ac-ILIAAALR[R8]IGDAFN[S5]YYA-NH2 (staple 9-16; SMILES CC[C@H](C)[C@H](NC(C)=O)C(=O)N[C@@H](CC(C)C)C(=O)N[C@H](C(=O)N[C@@H](C)C(=O)N[C@@H](C)C(=O)N[C@@H](C)C(=O)N[C@@H](CC(C)C)C(=O)N[C@@H](CCCNC(=N)N)C(=O)N[C@]1(C)CCCCCCC=CCCC[C@@](C)(C(=O)N[C@@H](Cc2ccc(O)cc2)C(=O)N[C@@H](Cc2ccc(O)cc2)C(=O)N[C@@H](C)C(N)=O)NC(=O)[C@H](CC(N)=O)NC(=O)[C@H](Cc2ccccc2)NC(=O)[C@H](C)NC(=O)[C@H](CC(=O)O)NC(=O)CNC(=O)[C@H]([C@@H](C)CC)NC1=O)[C@@H](C)CC) [SEQ ID NO: 1730]	10.2	126	71.8
Ac-IFIAAALR[R8]IGDAFN[S5]YYA-NH2 (staple 9-16; SMILES CC[C@H](C)[C@H](NC(C)=O)C(=O)N[C@@H](Cc1ccccc1)C(=O)N[C@H](C(=O)N[C@@H](C)C(=O)N[C@@H](C)C(=O)N[C@@H](C)C(=O)N[C@@H](CC(C)C)C(=O)N[C@@H](CCCNC(=N)N)C(=O)N[C@]1(C)CCCCCCC=CCCC[C@@](C)(C(=O)N[C@@H](Cc2ccc(O)cc2)C(=O)N[C@@H](Cc2ccc(O)cc2)C(=O)N[C@@H](C)C(N)=O)NC(=O)[C@H](CC(N)=O)NC(=O)[C@H](Cc2ccccc2)NC(=O)[C@H](C)NC(=O)[C@H](CC(=O)O)NC(=O)CNC(=O)[C@H]([C@@H](C)CC)NC1=O)[C@@H](C)CC) [SEQ ID NO: 1731]	10.2	95.9	45.3
Ac-I[2Nal]IAAALR[R8]IGDAFN[S5]YYA-NH2 (staple 9-16; SMILES CC[C@H](C)[C@H](NC(C)=O)C(=O)N[C@@H](Cc1ccc2ccccc2c1)C(=O)N[C@H](C(=O)N[C@@H](C)C(=O)N[C@@H](C)C(=O)N[C@@H](C)C(=O)N[C@@H](CC(C)C)C(=O)N[C@@H](CCCNC(=N)N)C(=O)N[C@]1(C)CCCCCCC=CCCC[C@@](C)(C(=O)N[C@@H](Cc2ccc(O)cc2)C(=O)N[C@@H](Cc2ccc(O)cc2)C(=O)N[C@@H](C)C(N)=O)NC(=O)[C@H](CC(N)=O)NC(=O)[C@H](Cc2ccccc2)NC(=O)[C@H](C)NC(=O)[C@H](CC(=O)O)NC(=O)CNC(=O)[C@H]([C@@H](C)CC)NC1=O)[C@@H](C)CC, Row prints Ac-I2NalIAAALR$r8IGDAFN$YYA-NH2) [SEQ ID NO: 1732]	13.7	144	55.3
Ac-IWISAALR[R8]IGDAFN[S5]YYA-NH2 (staple 9-16; SMILES CC[C@H](C)[C@H](NC(C)=O)C(=O)N[C@@H](Cc1c[nH]c2ccccc12)C(=O)N[C@H](C(=O)N[C@@H](CO)C(=O)N[C@@H](C)C(=O)N[C@@H](C)C(=O)N[C@@H](CC(C)C)C(=O)N[C@@H](CCCNC(=N)N)C(=O)N[C@]1(C)CCCCCCC=CCCC[C@@](C)(C(=O)N[C@@H](Cc2ccc(O)cc2)C(=O)N[C@@H](Cc2ccc(O)cc2)C(=O)N[C@@H](C)C(N)=O)NC(=O)[C@H](CC(N)=O)NC(=O)[C@H](Cc2ccccc2)NC(=O)[C@H](C)NC(=O)[C@H](CC(=O)O)NC(=O)CNC(=O)[C@H]([C@@H](C)CC)NC1=O)[C@@H](C)CC) [SEQ ID NO: 1733]	3.6	117	67.8
Ac-IWILAALR[R8]IGDAFN[S5]YYA-NH2 (staple 9-16; SMILES CC[C@H](C)[C@H](NC(C)=O)C(=O)N[C@@H](Cc1c[nH]c2ccccc12)C(=O)N[C@H](C(=O)N[C@@H](CC(C)C)C(=O)N[C@@H](C)C(=O)N[C@@H](C)C(=O)N[C@@H](CC(C)C)C(=O)N[C@@H](CCCNC(=N)N)C(=O)N[C@]1(C)CCCCCCC=CCCC[C@@](C)(C(=O)N[C@@H](Cc2ccc(O)cc2)C(=O)N[C@@H](Cc2ccc(O)cc2)C(=O)N[C@@H](C)C(N)=O)NC(=O)[C@H](CC(N)=O)NC(=O)[C@H](Cc2ccccc2)NC(=O)[C@H](C)NC(=O)[C@H](CC(=O)O)NC(=O)CNC(=O)[C@H]([C@@H](C)CC)NC1=O)[C@@H](C)CC) [SEQ ID NO: 1734]	19.7	170	96.2
Ac-IWIFAALR[R8]IGDAFN[S5]YYA-NH2 (staple 9-16; SMILES CC[C@H](C)[C@H](NC(C)=O)C(=O)N[C@@H](Cc1c[nH]c2ccccc12)C(=O)N[C@H](C(=O)N[C@@H](Cc1ccccc1)C(=O)N[C@@H](C)C(=O)N[C@@H](C)C(=O)N[C@@H](CC(C)C)C(=O)N[C@@H](CCCNC(=N)N)C(=O)N[C@]1(C)CCCCCCC=CCCC[C@@](C)(C(=O)N[C@@H](Cc2ccc(O)cc2)C(=O)N[C@@H](Cc2ccc(O)cc2)C(=O)N[C@@H](C)C(N)=O)NC(=O)[C@H](CC(N)=O)NC(=O)[C@H](Cc2ccccc2)NC(=O)[C@H](C)NC(=O)[C@H](CC(=O)O)NC(=O)CNC(=O)[C@H]([C@@H](C)CC)NC1=O)[C@@H](C)CC) [SEQ ID NO: 1735]	17.2	125	110
Ac-IWIAQALR[R8]IGDA[hPhe]N[S5]YYA-NH2 (staple 9-16; SMILES CC[C@H](C)[C@H](NC(C)=O)C(=O)N[C@@H](Cc1c[nH]c2ccccc12)C(=O)N[C@H](C(=O)N[C@@H](C)C(=O)N[C@@H](CCC(N)=O)C(=O)N[C@@H](C)C(=O)N[C@@H](CC(C)C)C(=O)N[C@@H](CCCNC(=N)N)C(=O)N[C@]1(C)CCCCCCC=CCCC[C@@](C)(C(=O)N[C@@H](Cc2ccc(O)cc2)C(=O)N[C@@H](Cc2ccc(O)cc2)C(=O)N[C@@H](C)C(N)=O)NC(=O)[C@H](CC(N)=O)NC(=O)[C@H](CCc2ccccc2)NC(=O)[C@H](C)NC(=O)[C@H](CC(=O)O)NC(=O)CNC(=O)[C@H]([C@@H](C)CC)NC1=O)[C@@H](C)CC) [SEQ ID NO: 1743]	2.7	38.9	16.6
Ac-IWIALALR[R8]IGDAFN[S5]YYA-NH2 (staple 9-16; SMILES CC[C@H](C)[C@H](NC(C)=O)C(=O)N[C@@H](Cc1c[nH]c2ccccc12)C(=O)N[C@H](C(=O)N[C@@H](C)C(=O)N[C@@H](CC(C)C)C(=O)N[C@@H](C)C(=O)N[C@@H](CC(C)C)C(=O)N[C@@H](CCCNC(=N)N)C(=O)N[C@]1(C)CCCCCCC=CCCC[C@@](C)(C(=O)N[C@@H](Cc2ccc(O)cc2)C(=O)N[C@@H](Cc2ccc(O)cc2)C(=O)N[C@@H](C)C(N)=O)NC(=O)[C@H](CC(N)=O)NC(=O)[C@H](Cc2ccccc2)NC(=O)[C@H](C)NC(=O)[C@H](CC(=O)O)NC(=O)CNC(=O)[C@H]([C@@H](C)CC)NC1=O)[C@@H](C)CC) [SEQ ID NO: 1736]	11.6	75.8	37.9
IWIAQALRAIGDAFNAYYX (N-terminal Ac; $r8 at 9 and $ at 16 (crosslinked); Aib at 19; C-terminal NH2) [SEQ ID NO: 1770]	29	218	–
